Article PMC9204302, “Novel Pharmacology Following Heteromerization of the Angiotensin II Type 2 Receptor and the Bradykinin Type 2 Receptor” (Frontiers in Endocrinology, 2022)

T1: Venus-tagged B2 receptor (B2-Venus) (human, UniProt P30411 1-391)
T1 construct: made by replacing the Rluc8 coding region of B2-Rluc8 with Venus cDNA; C-terminal end of the tag follows from the parent B2-Rluc8; source: HEK293FT, transiently transfected, in live cells; not shown: Venus, C-terminal, kept
T1 sequence (looked up): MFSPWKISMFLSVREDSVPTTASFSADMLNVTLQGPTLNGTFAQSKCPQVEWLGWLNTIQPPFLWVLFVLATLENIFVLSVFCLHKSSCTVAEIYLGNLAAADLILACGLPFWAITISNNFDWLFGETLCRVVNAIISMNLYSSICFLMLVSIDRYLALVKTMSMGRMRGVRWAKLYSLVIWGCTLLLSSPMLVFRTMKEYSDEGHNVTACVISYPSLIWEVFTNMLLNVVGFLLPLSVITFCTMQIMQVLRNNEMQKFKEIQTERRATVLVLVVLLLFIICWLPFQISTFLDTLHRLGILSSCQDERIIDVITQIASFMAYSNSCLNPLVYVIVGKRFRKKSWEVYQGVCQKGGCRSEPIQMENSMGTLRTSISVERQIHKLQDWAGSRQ

B1: Rluc8-tagged GRK2 (GRK2-Rluc8) (enzyme, UniProt P25098 1-689, looked up)
chain: MADLEAVLADVSYLMAMEKSKATPAARASKKILLPEPSIRSVMQKYLEDRGEVTFEKIFSQKLGYLLFRDFCLNHLEEARPLVEFYEEIKKYEKLETEEERVARSREIFDSYIMKELLACSHPFSKSATEHVQGHLGKKQVPPDLFQPYIEEICQNLRGDVFQKFIESDKFTRFCQWKNVELNIHLTMNDFSVHRIIGRGGFGEVYGCRKADTGKMYAMKCLDKKRIKMKQGETLALNERIMLSLVSTGDCPFIVCMSYAFHTPDKLSFILDLMNGGDLHYHLSQHGVFSEADMRFYAAEIILGLEHMHNRFVVYRDLKPANILLDEHGHVRISDLGLACDFSKKKPHASVGTHGYMAPEVLQKGVAYDSSADWFSLGCMLFKLLRGHSPFRQHKTKDKHEIDRMTLTMAVELPDSFSPELRSLLEGLLQRDVNRRLGCLGRGAQEVKESPFFRSLDWQMVFLQKYPPPLIPPRGEVNAADAFDIGSFDEEDTKGIKLLDSDQELYRNFPLTISERWQQEVAETVFDTINAETDRLEARKKAKNKQLGHEEDYALGKDCIMHGYMSKMGNPFLTQWQRRYFYLFPNRLEWRGEGEAPQSLLTMEEIQSVEETQIKERKCLLLKIRGGKQFILQCDSDPELVQWKKELRDAYREAQQLVQRVPKMKNKPRSPVVELSKVPLVQRGSANGL
notes: GPCR kinase 2 (GRK2); construct synthesized by GeneArt; also called GPCR kinase 2; source: HEK293FT, transiently transfected, in live cells

Assays:
[1] = molecular target: B2 receptor tagged with Rluc8 (B2-Rluc8) (human) (UniProt P30411); assay: FRET or BRET; BRET1/eBRET in live HEK293FT cells, one BRET-tagged receptor and one BRET-tagged interacting protein coexpressed, no second receptor; ligand-induced BRET after AngII or BK, 37°C
[2] = molecular target: T1, Venus-tagged B2 receptor (B2-Venus); assay: as above; conditions: partners not purified

Molecule	pEC50 of BK (ligand-induced BRET) [1]	pEC50 of BK (ligand-induced BRET) [2]
NES-Venus-mGsq (Venus-tagged mini G protein)	7.73	
B1		7.35
